This assay has as its target MPR.03 biotinylated peptide (HIV-1, biotin on the C-terminus). As to the kind of experiment: SPR. On the technique in general: In SPR one partner is held on a chip, and binding of the other changes the refractive index at the surface.

B1: CAP206-CH12 recombinant human monoclonal antibody (antibody, V domains shown)
VH: QVQLVQSGAEVKKPGSSVKLSCKASGGTFGSYSVTWVRQAPGQTFEWVGRIVPWVGVPNYAPKFQGRVTITADKSSTVYMELTSLRFEDTAVYYCATAYEASGLSYYYYMDDWGKGTTVTVSS
VL: EIVLTQSPGTLSLSPGERATLSCRASQSVTSSYLAWFRHKPGQAPRLLIYGASYRGTGIPDRISGSGSGTDFTLTISRLEPEDFAVYYCQHYGGSPGMYTFGQGTRLEIK
Usually koff stands for the rate constant with which the complex falls apart. B1 registered a koff of 0.00012 s⁻¹.

The values above are taken from publication PMC3184076 (2011).
